Results taken from patent publication US20040072240A1.

Target: HLA A2.1 molecule (human)
Experiment: T2 cells, flow cytometry; P1Y variant against its natural peptide

P1Y variant of gp100 209 (peptide)
DC50 Y1-DC50 WT: 2 h | RA WT/RA Y1: 1.7
